Consider 19 sequences from a protein production outcome set (Wang et al. 2014).

The nature of the data set: label from the status in PepcDB records.
Consider “MLAPGMGEWVYKANLFLFGEFAYYYPFFLFILNYVYYKRNYKLANFTRRELFGIGFAFFSSLLLFAVFYPNSGYILELAYAIFSTILGHTGSGIFALLLLLFSLVLLFPKFAKEILKIELDFTYLLKVEQAFKSLLMRVFGGENEKEDVGKSEPIVPKLNILQDSIYGNLQINKKGETNNLEQIIKDSNINASKNSITTAKENFEKLKNQILDETIEIDKQSLKESRSFVHEHSQQVRNFAQKASKMSISLDEDFNFISEEEVDMIPERFLKPKKLEDIKQIDTNKNLDEPSYKRKNIEIPVSNQEVKPKIFTKELELRENLIKKEKLEQEYKAYQNEILENKVKQEIKKLEEYDAINSSDIIEGNKYSFNSPKTIKTETEESDKINENKNLDKADNIFEFAPIVEELNHPYIEPTPIKNINEIVIEEKNTLDFIQNTETKIDNEKTNDQEIKLQKAVLAKEIAINQALLREIEQGEIEKPKDFTLPPLDFLANPKEHKQEINESEIDKKIYNLLEKLRRFKIGGDVISTYVGPVVTTFEFRPSADVKVSRILNLQDDLTMALMAKSIRIQAPIPGKDVVGIEVPNDEIQTIYLREILQSEVFKNAKSPLTIALGKDIVGNAFVTDLKKLPHLLIAGTTGSGKSVGINSMLLSLLYRNSPKTLRLMMIDPKMLEFSIYNDIPHLLTPVITDPKKAVNALSNMVAEMERRYRLMADAKTKNIENYNEKMKELGGEKLPFIVVIIDELADLMMTAGKDVEFYIGRLAQMARASGIHLIVATQRPSVDVVTGLIKANLPSRISYKVGQKIDSKVILDAMGAESLLGRGDCLFTPPGTSSIVRLHAPFASEFEIEKIVDFLKDQQSVEYDESFLKDQQSVGVTTNESFDGEADELYEEAKRVILEDGKTSISYLQRRLKIGYNRSANIIEQLTQNGILSEPDAKGQREIL”, for which the protein production entry is “failed”. The result for “MNEELKKSIAASIENTRFDILQMIELGRELIDYPDEIHHGPVVSMGVPKDTLPKWDDIQILTAQLHKKPLIDDAPVDTQLVIGPRAQKPLVLDIPLLVGDMSYGALSKRAKQALSKGADLAGTAICSGEGGILGDELELNQSYMFELGSARNGLKKNSDLSQFSKDFKGKVKAFHFKGGQAAKTGTGGHLPGGKVTEEIAKARQIEVGKDAISPSTFADFHTPRDFADFADQIRDQMGGIPIGFKISANHIEDDMRFALDAGADYIILDGRGGSTGAAPGIFRDHISVPTIAALARARKFLDVAGHEKGAKNSVTLIITGGLRIPSDFIKALALGADGIALANSALQAIGCTGARICYSGDCPAGIATHAQHLVNKIDVDARARDLALFFNGSVHLMKIMTRACGHHSLREFSRDDICTWKAEISRLAGIPYAGVDPSNP” reads “failed”; that for “EPNRLIKEKSPYLLQHAYNPVDWYPWGEEAFEKARKENKPVFLSIGYSTCHWCHMMAHESFEDEEVAGLMNEAFVSIKVDREERPDIDNIYMTVCQIILGRGGWPLNIIMTPGKKPFFAGTYIPKNTRFNQIGMLELVPRIKEIWEQQHEEVLDSAEKITSTIQEMIKESSG”, “not failed”.

As for “MANNARIEHTSSEGHEGDATCVAYFDGQLFSGGADGKIRIWSPELQLLATVNAHEAYIYCMAINQHGKVYSSSCDGQVHFMLPPYGDESVQELFRCDDAIQAMYCDGSVLYTGDDKGVVTTWTNDRMLFKYSLVEEVKSLAGEQNLIYTVRDLDVVVSQVAEGKSGKYSNKAVIPGKSPLHLLGPMVDGKRSYLAFPDRSGMGLQLVNNLSQQQYSKIWHLPDCHELIINALCGDETYLYSGGYDKKVKGWTDLEAGKPKALGEVEVGSCVNSICCGANDTVYIASSDGFIRSAKFV”, the protein production entry is recorded as “failed”. Under “MGLMKFQLFIQPKLDVLQGNIVEYEILLRDDSAVPRFPLSELEAVLADEELYLAFSEWFSEAFLDVLKKYPNDRFAINIAPQQLFYIETLHWLDKLKSESHRITVEMTEDIFDVPGHKRHLNANDKNAFILNKIKVIHGLGYHIAIDDVSCGLNSLERVMSYLPYIIEIKFSLIHFKNIPLEDLLLFIKAWANFAQKNKLDFVVEGIETKETMTLLESHGVSIFQGYLVNKPFPV” stands “not failed”; under “MRETLERLLASETFGRSERARKLIRYLVEREQAGEADRLKGFSIAMDVFGKDGDFDPSTDAVVRVQAGRLRELLQQYFANEGIAEPVRIAIPRGGYVPAYELNAIRLPEVAKPAEQAAAAAAPAEHPSAAEDAVAPDASLAPAAAPVPSVARHLRFFWMAIAVVIAMLGVLILRQGSGALLAGGHLPATFESAGLTSSIAPSPVSEALPLVYIAVKASGADAGRIAASLRAGLSGFDTIDFIGRDTVDKTDPVNNPTSFIFDILPGPNTGDITIELQSMASGRVLLSRNLTPADSTPTAIEDRVADMLSSALPASGTIYNYIEQTGTPNGLTECLLLNDKYYLDQNARTHEAAYRCLETLANSGAKSSLVYSELASLQVEAVSDHYVYPPNATIEKAVEFAHRGVQMGPTSPYAHRAYGYVSSRLGNTDEAIRWMRKAYELNPYDLGMAAAYGYGLIFAGRYAEGTPILTHAAETFSGHSTWWDYGLFVGDFMLGDMNKAIAASMALRTTATKSHYLAARLIGAKAAGQDSLVTTLLNELNTKFPKFAADPRSTFVERKYPADLTDRLVQALRAAGLGSAS”, “failed”; under “PKLTRVDIAHDDFEGKHISVDWGNMQDGLGGFQLGNRAPNIEHKGNWRRPNGKGRTLCIGSRDSGKYLRLYEKGRAEGDPNDNWQRAEVEFKSIDRVLPFDMLLAPSEFFIAAYPCFRDLAQHLQPERIETISKTAQINFQTAIENLKHQYGKYINIFKEVFEPEELINLISCSDPLAYPKRLDHVLITARRM”, “failed”. On to “MNPCGIQRYQTQMYTQVSYDFRLSWSSGKRSASGFEAVGGAKMAEEKLGMKTQVPASIESQKPRPKKAPEFPIVEKLNWLIHLYYIRKDYEACKAVIKEQLQETQGLCEYAIYVQALIFRLEGNIQESLELFQTCAVLSPQCADNLKQVARSLFLLGKHKAATEVYNEAAKLNQKDWEICHNLGVCYTYLKQFSKAQDQLHSALQLNKHDLTYIMLGKIHLLQGDLDKAIEIYKKAVEFSPENTELLTTLGLLYLQLGVYQKAFEHLGNALTYDPANYKAILAAGSMMQTHGDFDVALTKYRVVACAIPESPPLWNNIGMCFFGKKKYVAAISCLKRANYLAPFDWKILYNLGLVHLTMQQYASAFHFLSAAINFQPKMGELYMLLAVALTNLEDIENAKRAYVEAVRLDKCNPLVNLNYAVLLYNQGEKKGALAQYQEMEKKVHFLKDNNPLEFDSEMVEMAQKLGAALQVGEALVWTKPVKDPKSKHRTNSGSKSATLQQPLGSFQALGQAMSSAAAHRKIPSGAVGAQLTKPPSLPLEPEPEPTVEASPTEASEQNKEK”, for which the protein production result is “failed”.

Take “MGDALSLLQQADRLHRQLLRTGPAQAPCWEPPVDMIETESAVLIYVALPGVAAGDVAVRFDPDGISISGVRPLPALRNARIHGLEIPYGRFQRRIRLPLHALEPEAPTLADGCLTLTLKKLREAPLEHHHHHH”: the protein production entry was “not failed”. The result for “SSGNHIFKGRAAGIAVNENGKGLITENVIRENQWGGVDIRRGGIPVLRSNLICFGYSDGVVVGDEGKGLIEGNTIYANKGCGVWMMSSSLPHVTSNHVSYNGLYGVAVFSQKDGSSELPRGHRAQENFSEDGDAILWETELEKEDDPLRRPITIALVESNSINHNGASGLYVQSSEALHVITNVIHANGDRGITVAQSSQPTRVANNSISCNRQSGVKVEAQCKVELRGNGIYDNRGHGIITKGDSTIVIENDIIGNRGSGLQLLPRSDTKVIKNRIHSFRAYGIAVRGRAKALVQENIIFQGKTSKTIFQQISNNRECIMQNNKFLVFKKKSDTWR” reads “not failed”; that for “MSRIGKLLLGIVNLGPIGFMAVAVYRHGDLPASAVAVQVAVVAVLLGIYLRHLAGNDQLTRGLRRGWALVLLAGNWAVFPVYWHQFVWQDPRER”, “failed”; that for “MAEPVQEELSVLAAIFCRPHEWEVLSRSETDGTVFRIHTKAEGFMDADIPLELVFHLPVNYPSCLPGISINSEQLTRAQCVTVKEKLLEQAESLLSEPMVHELVLWIQQNLRHILSQPETG”, “not failed”. On to “NDPDADRFAVAARKADGEYQMLTGDQVGSLFGHYLLSQTDAHRQLVGNTIVSSSLLSKIAAAHGARYYQTLTGFKWLTNVAMQEQTEQHQFLFAYEEALGYTIGSTVWDKDGLSALVAFAQLAAELNAQGKTVWDQLEALYRQHGLHVN”, for which the protein production entry is “failed”. The result for “MKVLLANPRGFCAGVDRAIEIVKRTIDMLGTPIYVRHEVVHNRFVVDDLKQRGAIFVEELHQVPDGATVIFSAHGVSQAVRRQAAQRGLKVFDATCPLVTKVHLDVARHCRTGRDMILIGHAGHPEVEGTMGQWDQERGTGRIYLVENIDDVATLHVAQPHHLAYTTQTTLSVDDTRNIIDALRQRFPTIQGPKNNDICYATQNRQDAVRELARECDLVLVVGSPNSSNSNRLSELAQREGVASYLIDSAAEIDPAWVIDKHHIGVTAGASAPQVLVDGVLARLYELGATSVSEHSGKPESMVFALPKALRLQLVD” reads “failed”. For the sequence “MMRQVRRGATPPPGPGPSAPPYGAGVPQQPSYTDGQGHGGDGYDSGYNTGQVYGGGGGGQGPGRQVRDRPAPDWRRRIKWTAITVVTVLVVTTVGTYFWADSKLNRDVDLSKVIDRPAAGEGTNYLIVGSDSREGMSKDQMKDLHTGYAEGKRTDSMMILHTGDNGSTLISLPRDSDVEIPSFVGSESGKKYPGTGRHTKLNAAYAEDGPELLVRTVEHNTGLRLDHYVEIGFGGFANIVDAVGGVEIDIPQDIKDKKSGADLKKGKQTLDGQEALAFVRTRYALAGSDLDRTKNQQKFLSALASQVATPSTVLNPFRLYPTMGAGLDSLVVDKDMGLFDLASMFWAMKSVSGGEGTSMNMPISGSVGGNLKWDDAKVKKLVEELKNDEKVTVSGNN”, the protein production entry is “failed”. With “GSSGSSGMCGRFAQSQTREDYLALLAEDIERDIPYDPEPIGRYNVAPGTKVLLLSERDEHLHLDPVFWGYAPGWWDKPPLINARVETAATSRMFKPLWQHGRAICFADGWFEWKKEGDKKQPFFIYRADGQPIFMAAIGSTPFERGDEAEGFLIVTAAADQGLVDIHDRRPLVLSPEAAREWMRQEISGKEASEIAASGCVPANQFSWHPVSRAVGNVKNQGAELIQPV”, the protein production entry was “not failed”. The result for “MMTDKLNLNVLDAAFYSLEQTVVQISDRNWFDMQPSIVQDTLIAGAIQKFEFVYELSLKMMKRQLQQDAINTDDIGAYGFKDILREALRFGLIGDMSKWVAYRDMRNITSHTYDQEKAMAVYAQIDDFLIESSFLLEQLRQRNQYD” reads “not failed”; that for “MSDSWTERWNDRYSNEIFAYGEKPNNYLKAQLENLQPGTILFAAEGEGRNAVFAACLGWDVQAFDISSEGKKKAFQLAEKNQVTIAYQVGQLETLGYTAGQFDALALIYAHFPATVKSAYHRILSSYVRSGGYIIFEAFSKKHLDYLAKNEQVGGPKEFDMLFSIEEIKADFPDYEILELEEKEIELNEGQFHNGTGSVIRFTGRKKLEHHHHHH”, “failed”. “MSNKGSSDLRLLLSTLVISGLVAGLAYWQLSQHWTRSPDQNAGSPLHTPTSKWQKIALAMTLRGHEDEVNAIALSPDGNFLVSAGDDRRLYFWNLATGTALGQAKGHTDWIYALVMTPDGQTVISGSKDKTIKLWGVGDRQLQATLSGHQDFVNGLALSPDGRTLASASYDHTVKLWNVPSRQEITTLKANEGIMLSVAISRDGRFLATGGVDKLIRIWDLPSRRLLRTLEGHTSDVNSLAFTPDSSQLVSGSDKDGIKLWNLTTGELQQQFGTEGGQVFSVAVSPDGSTLASGHGDQTVKLWSLSGQLLRNLKGHSGAVYSVVFGQDQLISASEDKTIKVWRLFPETP”: the protein production result is on record as “failed”.
